Assay results as given in PMC3554717 (2013).

B1: LYP tagged with the myc epitope, Arg620 variant (myc-LYPR) [human] / HA-CSK [not stated] (parent complex)
chain 1: MDQREILQKFLDEAQSKKITKEEFANEFLKLKRQSTKYKADKTYPTTVAEKPKNIKKNRYKDILPYDYSRVELSLITSDEDSSYINANFIKGVYGPKAYIATQGPLSTTLLDFWRMIWEYSVLIIVMACMEYEMGKKKCERYWAEPGEMQLEFGPFSVSCEAEKRKSDYIIRTLKVKFNSETRTIYQFHYKNWPDHDVPSSIDPILELIWDVRCYQEDDSVPICIHCSAGCGRTGVICAIDYTWMLLKDGIIPENFSVFSLIREMRTQRPSLVQTQEQYELVYNAVLELFKRQMDVIRDKHSGTESQAKHCIPEKNHTLQADSYSPNLPKSTTKAAKMMNQQRTKMEIKESSSFDFRTSEISAKEELVLHPAKSSTSFDFLELNYSFDKNADTTMKWQTKAFPIVGEPLQKHQSLDLGSLLFEGCSNSKPVNAAGRYFNSKVPITRTKSTPFELIQQRETKEVDSKENFSYLESQPHDSCFVEMQAQKVMHVSSAELNYSLPYDSKHQIRNASNVKHHDSSALGVYSYIPLVENPYFSSWPPSGTSSKMSLDLPEKQDGTVFPSSLLPTSSTSLFSYYNSHDSLSLNSPTNISSLLNQESAVLATAPRIDDEIPPPLPVRTPESFIVVEEAGEFSPNVPKSLSSAVKVKIGTSLEWGGTSEPKKFDDSVILRPSKSVKLRSPKSELHQDRSSPPPPLPERTLESFFLADEDCMQAQSIETYSTSYPDTMENSTSSKQTLKTPGKSFTRSKSLKILRNMKKSICNSCPPNKPAESVQSNNSSSFLNFGFANRFSKPKGPRNPPPTWNI
chain 2: MSAIQAAWPSGTECIAKYNFHGTAEQDLPFCKGDVLTIVAVTKDPNWYKAKNKVGREGIIPANYVQKREGVKAGTKLSLMPWFHGKITREQAERLLYPPETGLFLVRESTNYPGDYTLCVSCDGKVEHYRIMYHASKLSIDEEVYFENLMQLVEHYTSDADGLCTRLIKPKVMEGTVAAQDEFYRSGWALNMKELKLLQTIGKGEFGDVMLGDYRGNKVAVKCIKNDATAQAFLAEASVMTQLRHSNLVQLLGVIVEEKGGLYIVTEYMAKGSLVDYLRSRGRSVLGGDCLLKFSLDVCEAMEYLEGNNFVHRDLAARNVLVSEDNVAKVSDFGLTKEASSTQDTGKLPVKWTAPEALREKKFSTKSDVWSFGILLWEIYSFGRVPYPRIPLKDVVPRVEKGYKMDAPDGCPPAVYEVMKNCWHLDAAMRPSFLQLREQLEHIKTHELHL

Variants of: B1
Test: co-immunoprecipitation (IP anti-myc, IB HA), blot densitometry; transiently transfected HEK293 cells; pEF empty-vector lane 3.67; parent: 57.8

response [arbitrary units] | Variant
19.1 | chain 1 I626A, chain 1 V627A
19.5 | chain 1 R620W

Variants of: B1
Test: co-immunoprecipitation (IP anti-myc, IB HA), blot densitometry; HEK293 cells; parent: 64.8

response [arbitrary units] | Variant
30 | chain 1 R700F
0.03 | chain 1 R620F, chain 1 R700F
5.2 | chain 1 R620F

Variants of: B1
Test: co-immunoprecipitation (IP anti-myc, IB HA), blot densitometry; transfected HEK293 cells; parent: 48.1

response [arbitrary units] | Variant
10.3 | chain 1 P615A, chain 1 P618A
0.77 | chain 1 P615A, chain 1 P618A, chain 1 P695A
18 | chain 1 R620W
0.07 | chain 1 R620W, chain 1 P695A
23.3 | chain 1 P695A
